Measurements from IntAct's records for PubMed 29892012.

Key:
pnma5_human PNMA5 = pnma5_human PNMA5 (UniProt Q96PV4)
dctd_human DCTD = biological target: T1, dctd_human DCTD (UniProt P32321)
T1 sequence: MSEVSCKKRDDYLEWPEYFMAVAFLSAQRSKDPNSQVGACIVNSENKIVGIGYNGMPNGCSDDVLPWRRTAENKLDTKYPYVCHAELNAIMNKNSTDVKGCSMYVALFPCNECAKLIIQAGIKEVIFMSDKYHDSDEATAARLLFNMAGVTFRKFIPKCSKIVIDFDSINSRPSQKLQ

dcor_human ODC1 = biological target: T2, dcor_human ODC1 (UniProt P11926)
T2 sequence: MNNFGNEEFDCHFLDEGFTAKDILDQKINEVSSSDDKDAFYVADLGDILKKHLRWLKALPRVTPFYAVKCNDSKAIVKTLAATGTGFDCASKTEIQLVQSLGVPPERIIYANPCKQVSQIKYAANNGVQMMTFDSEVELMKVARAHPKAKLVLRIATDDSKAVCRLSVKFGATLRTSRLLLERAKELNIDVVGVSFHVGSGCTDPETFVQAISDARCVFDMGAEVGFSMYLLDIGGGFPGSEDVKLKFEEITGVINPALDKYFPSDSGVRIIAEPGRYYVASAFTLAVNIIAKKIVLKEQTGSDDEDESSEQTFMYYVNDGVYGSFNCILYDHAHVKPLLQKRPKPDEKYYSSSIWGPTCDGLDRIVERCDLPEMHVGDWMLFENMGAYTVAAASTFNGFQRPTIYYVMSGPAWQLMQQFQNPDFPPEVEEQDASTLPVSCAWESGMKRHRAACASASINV

ca094_human C1orf94 = biological target: T3, ca094_human C1orf94 (UniProt Q6P1W5)
T3 sequence: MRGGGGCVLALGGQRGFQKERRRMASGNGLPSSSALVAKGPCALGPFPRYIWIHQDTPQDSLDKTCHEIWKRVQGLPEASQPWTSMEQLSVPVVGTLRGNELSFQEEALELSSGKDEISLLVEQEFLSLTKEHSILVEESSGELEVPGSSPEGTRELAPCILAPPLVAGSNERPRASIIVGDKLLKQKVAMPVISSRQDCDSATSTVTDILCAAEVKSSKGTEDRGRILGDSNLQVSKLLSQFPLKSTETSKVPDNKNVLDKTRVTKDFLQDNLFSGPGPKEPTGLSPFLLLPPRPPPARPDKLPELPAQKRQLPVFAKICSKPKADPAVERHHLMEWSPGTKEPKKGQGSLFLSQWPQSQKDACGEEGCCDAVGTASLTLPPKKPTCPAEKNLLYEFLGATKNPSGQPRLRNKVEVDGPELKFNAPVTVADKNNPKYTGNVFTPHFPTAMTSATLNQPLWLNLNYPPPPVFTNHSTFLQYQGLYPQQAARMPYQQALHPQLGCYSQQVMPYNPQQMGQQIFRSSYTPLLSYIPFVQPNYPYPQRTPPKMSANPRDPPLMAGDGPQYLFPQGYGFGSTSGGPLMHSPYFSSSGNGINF

phs_human PCBD1 = biological target: T4, phs_human PCBD1 (UniProt P61457)
T4 sequence: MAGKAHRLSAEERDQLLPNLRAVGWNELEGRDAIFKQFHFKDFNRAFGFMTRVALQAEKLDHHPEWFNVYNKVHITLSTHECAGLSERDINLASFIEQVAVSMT

trim1_human MID2 = biological target: T5, trim1_human MID2 (UniProt Q9UJV3)
T5 sequence: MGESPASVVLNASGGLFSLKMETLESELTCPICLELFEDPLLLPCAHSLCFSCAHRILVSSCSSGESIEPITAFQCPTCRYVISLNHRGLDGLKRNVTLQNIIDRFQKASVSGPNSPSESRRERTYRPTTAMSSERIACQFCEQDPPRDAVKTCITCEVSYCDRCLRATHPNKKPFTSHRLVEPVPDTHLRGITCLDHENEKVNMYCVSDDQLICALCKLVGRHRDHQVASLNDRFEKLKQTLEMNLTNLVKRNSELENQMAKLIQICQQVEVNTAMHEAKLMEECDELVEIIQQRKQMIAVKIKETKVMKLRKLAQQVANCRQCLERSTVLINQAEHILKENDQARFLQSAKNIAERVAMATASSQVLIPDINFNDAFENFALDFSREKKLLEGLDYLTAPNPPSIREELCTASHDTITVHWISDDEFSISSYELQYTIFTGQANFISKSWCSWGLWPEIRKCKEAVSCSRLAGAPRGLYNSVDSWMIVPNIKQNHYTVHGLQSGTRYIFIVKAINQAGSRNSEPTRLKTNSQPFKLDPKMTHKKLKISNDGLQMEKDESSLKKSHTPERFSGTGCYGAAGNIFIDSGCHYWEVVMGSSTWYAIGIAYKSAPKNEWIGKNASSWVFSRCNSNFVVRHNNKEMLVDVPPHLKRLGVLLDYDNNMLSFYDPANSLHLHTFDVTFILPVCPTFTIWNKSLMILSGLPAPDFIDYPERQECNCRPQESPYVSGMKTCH

kctd9_human KCTD9 = biological target: T6, kctd9_human KCTD9 (UniProt Q7L273)
T6 sequence: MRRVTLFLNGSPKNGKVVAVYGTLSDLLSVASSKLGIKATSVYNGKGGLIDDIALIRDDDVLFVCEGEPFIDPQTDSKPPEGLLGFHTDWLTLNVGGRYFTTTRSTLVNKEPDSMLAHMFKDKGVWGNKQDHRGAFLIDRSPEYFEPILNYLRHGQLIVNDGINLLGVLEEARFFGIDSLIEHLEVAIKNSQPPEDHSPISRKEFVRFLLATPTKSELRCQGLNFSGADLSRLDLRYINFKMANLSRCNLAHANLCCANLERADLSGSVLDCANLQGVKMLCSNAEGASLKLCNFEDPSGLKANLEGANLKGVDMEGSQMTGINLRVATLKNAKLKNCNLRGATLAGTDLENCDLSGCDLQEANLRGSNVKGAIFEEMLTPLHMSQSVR

traf1_human TRAF1 = biological target: T7, traf1_human TRAF1 (UniProt Q13077)
T7 sequence: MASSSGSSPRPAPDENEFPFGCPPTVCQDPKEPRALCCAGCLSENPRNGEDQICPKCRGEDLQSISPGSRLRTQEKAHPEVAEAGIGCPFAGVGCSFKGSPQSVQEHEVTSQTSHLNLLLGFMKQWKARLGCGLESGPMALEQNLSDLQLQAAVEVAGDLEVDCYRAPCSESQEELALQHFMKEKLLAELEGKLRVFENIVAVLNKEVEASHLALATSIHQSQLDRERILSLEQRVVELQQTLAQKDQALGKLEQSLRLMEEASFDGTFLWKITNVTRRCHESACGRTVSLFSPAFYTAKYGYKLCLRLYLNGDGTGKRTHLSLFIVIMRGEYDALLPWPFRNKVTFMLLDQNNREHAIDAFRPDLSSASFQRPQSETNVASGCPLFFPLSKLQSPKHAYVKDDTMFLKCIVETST

Sequence of pnma5_human PNMA5 (Q96PV4 whole entry): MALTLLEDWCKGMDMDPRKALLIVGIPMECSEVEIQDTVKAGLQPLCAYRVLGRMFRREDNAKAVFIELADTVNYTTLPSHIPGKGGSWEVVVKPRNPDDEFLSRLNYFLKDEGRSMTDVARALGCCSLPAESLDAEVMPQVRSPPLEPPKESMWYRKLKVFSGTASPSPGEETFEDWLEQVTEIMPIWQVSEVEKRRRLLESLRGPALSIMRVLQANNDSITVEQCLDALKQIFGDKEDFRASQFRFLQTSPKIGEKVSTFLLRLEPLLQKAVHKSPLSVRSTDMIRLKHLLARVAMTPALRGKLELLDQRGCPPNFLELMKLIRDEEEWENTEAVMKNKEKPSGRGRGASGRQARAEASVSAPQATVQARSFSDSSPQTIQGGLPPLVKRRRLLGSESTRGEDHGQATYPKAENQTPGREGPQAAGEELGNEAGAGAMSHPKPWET

effect of a mutation on the interaction (pnma5_human PNMA5): with no effect
effect of a mutation on the interaction (dctd_human DCTD): with no effect
effect of a mutation on the interaction (dcor_human ODC1): disrupting interaction strength
effect of a mutation on the interaction (ca094_human C1orf94): with no effect
effect of a mutation on the interaction (phs_human PCBD1): with no effect
effect of a mutation on the interaction (trim1_human MID2): with no effect
effect of a mutation on the interaction (kctd9_human KCTD9): with no effect
effect of a mutation on the interaction (traf1_human TRAF1): with no effect
Substance: Golgi reassembly-stacking protein 2 (Homo sapiens) (from UniProt Q9H8Y8) L320R
